Assay: yeast display, Sf9 membrane polyspecificity reagent, FACS + sequencing; frameworks hold sequencing errors
Method in brief: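 A nanobody's polyreactivity label depends on the gate it was sorted from. Yeast display cells were stained with 10% biotinylated, detergent-solubilized Sf9 membrane reagent for 1 hour at 4 °C, enriched on streptavidin microbeads and sorted by FACS. The low and high (top ~1%) gates were set on anti-HA fluorescence for expression and streptavidin fluorescence for reagent binding.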

Sequence	polyreactivity (PSR sort gate)
QVQLVESGGGLVQAGGSLRLSCAASGITFVINGMGWYRQAPGKESELLAAISKSGRTYYADSVKGRFTISRDNAKNTVFIQMNSLTPEDSAVYYCNNVPYPSNDYWGQGTQVTVSS	high polyreactivity
QVQLVESGGGLVQAGGSLRLSCAGSGSTLTWNDMGWYRHAPGKERELVASITQSGDSTYYADSVKGRFTISRDNAKNTVYLQMNSLKPEDTAVYYCSGVYTYPLGYYHYTYDYWGQGTQVTVSS	low polyreactivity
QVQLVETGGGLVQAGGSLRLSCAAYGRIFAIYAMGWYRQAPGKDRELVAAISRSGGSTSYADSVKGRFTISRDNAKNTVYLQMNSLKPEDTAVYYCARRITYYQLSRQRYDYWGQGTQVTVSS	high polyreactivity
QVQLVESGGGIVQAGGSLRFSCAASGGTFYRYAMGWYRLAPGNERELVAAISSSGGSTYYAVSVKGRFTISRDNAKNTVYLQMNSLKPEDTAVYYCAAYSFQSHNFDYWGQGSQVTVSS	high polyreactivity
QVQLVESGGGLVQAGGSLRLSCAASGRIFKINAMGWYRQAPGKERELVATITRDGRTYYADSVKGRFTISRDNAKNTVYLQMNSLKPEDTAVYYCNVRRAFSGWRGYDYWGQGTQVTVSS	high polyreactivity
QVQLVESGGGLVQAGGSLRLSCAASGFIFLINAMGWYRQAPGKERELVAGITSGGGNTYYADSVKGRFTISRDNAKNTVYLQMYSLKPEDTAVFYCAARLFDYWGQGTQVTVSS	low polyreactivity
QVQLQESGGGLVQAGGSLRLSCAASGSISNSAAMAWYRQAPGKERELVVSIGHGASSNYADSVKGRFTISRDNAKNTVYLQMNSLKPEDTAVYYCAAYPGFLDGFFYWGQSTQVTVSS	high polyreactivity
QVQLVESGGGLVQAGGSLRLSCAASGSISKINAMGWYRQAPGKERELVAAINTGDSTYYADSVKGRFTISRDNAKNTVYLQMNSLKPEDTAVYYCATVVYTWFLAEEDDYCGQGTQVTVSS	low polyreactivity
QVQLVESGGGLVQAGGSLRLSCAASGSTFQVYAMGWYRQAPGKERELVATIRGVGSTNYADSVKGRFTISRDNAKKTVYLQMNSLKPEDTAVYYCNAAVSQFSHRWRRRITFDYWGQGTQVTVSS	low polyreactivity
QVQLVESGGGLVQAGGSLRLSCAPSVRTFQYYAMGWYRPAPGKERELVAAINQGGGRTYYADSVKGRFTISRDTAKNTVYLQMNSLKPEDTAVYYCAADGLSKFDYWGQGTQVTVSS	low polyreactivity
QVQLVESGGGLVQAGGSLRLSCAASGRIFPHYARGWYRQAPGKERELFAAINVDGGRTYYADSVKGRFTISRDNAKNTVYLQLTSLKPEDTAVYYCAAKPVLYHEQDYGYAVEFNYWGQGTQVTVSS	low polyreactivity
QVQLVESGGGLVQAGGSLRLSCAASGSTFPVYDMGWYRQAPGKERELVAAITAGVSTNYADSVKGRFTISRDNAKNTVYLQMNSQKPEDTAVYYCAKDFGLLPIRDDYWGQGTQETVSS	low polyreactivity
QVQLVESGVGLVQAVGSLRLSCAASGSTFYYYAMGWYRQAPGKERELVAAISWSGAYTFYSDSVKGRFTISRDNAKNTVYLQMNSLKPEDTAVYYCAARYYGQPQYQPLYYWGQGTQVTVSS	high polyreactivity
QVQLVESGGGLVQAGGSLRLSCAASGGTFFYNAMGRYRQAPGKERELVAAINGGTSTNYADSVKGRFTISRDNAKNTVYLQMNSLKPEDTAVYYCAAVYRRLGRYDWYDYWGQGTQVTVSS	low polyreactivity
QVQLVESGGGLVQAGGSLRLSCAASGFIFGQNDMGWYRQAPGKERELVAAISSDGSTYYADSVKGRFTISRDNAKNTVYLQMNSLKPEDTAVYYCAAEYSWYYYYLYVGEYDYWGQGTQVTVSS	low polyreactivity
QVQLVESGGGLVQAAGSLRLSCAASGNIFVRYVMGWYRQAPGKERELVAAITTSGGSTRYADSVKGRFTISRDNAKNSVYLQMNSLKPEDTAVYYCAARFRYRHLTYGYWGQGTQVTVSS	high polyreactivity
QVQLVESGGGLVQAGRSLRLSCAASGRIFGWYAMGWYRQAPGKERELVAAIRWSGGSTYADSVKGRFTISRDNAKNTVYLQMNSLKPEDTAVYYCAALQRTGPYAGSSGYWGQGTQVTVSS	high polyreactivity
QVQLVESGGGLVQAGGSLRLSCAASGRTFGPYAMGWYRQAPGKERELVAAISRSGGRTYYADSVKGRFTISRDNAKNTVYLQMNSLKPEDTAVYYCAARYYSEPNAYYYWGQGTQVTVSS	high polyreactivity
QVQLVESGGGLVQAGGSLRLSCAASGIIFRLNAMGWYRQAPGIERELVAAILRRGGSTYYADSVKGRFTISRDNAKNTVYLQMNSLKPEDTAVYYCAKDPHGSDFGYWGQGTQVTVSS	low polyreactivity
HVQLVDSGGGLVQAGGSLRLSCAASGSIFRYYTMGWYRQAPGKERELVAAISWSGGRTYYAHSVKGRFTISRDKAKNTVYLQMNSLKPEDTAVYYCAAVRPYYYPLPTVPNLPYDYWGQGTQVTVSS	high polyreactivity
QVQLVESGGGLVQAGGSLRLSCAASGRTFRPYAMGWYRQAPGKERELVAAITRSGGSTYYADSVKGRFTISRDNAKNTVYLQMNSLKPEDTAVYYCAAYNTYSDTYDYWGQGTQVTVSS	low polyreactivity
QVQLVESGGGLVQAGGSLRLSCAASGRTFKYYAMGWYRQAPGKERELVAAISSGGSTYYADSVKGRFTISRDNAKNTVYLQMNSLKPEDTAVYYCAAYSSYFRRRKWGYDYWGQGTQVTVSS	high polyreactivity

Sequence	polyreactivity (PSR sort gate)
QVQLVESGGGILQAGGSLRLSCAASGSTFSGYAMGWYRQATGKERELVAAISSSGGSTYYADSVKGRFTISRDNAKNTVYLKMNSQKPEDTAVYYCAKRRYGKHYTGLTSYYYWGHGTQVTVSS	high polyreactivity
QVQLVESGGGLVQAGGSLRLSCSASGRIISFYVMGWYRQAPGKDRELVAAISLSGGSTYYADSVKGRFTISRDNAKNTVYLQMNSLKPEDTAVYYCAADQTLVGLPYNYWGQGTQLTVSS	high polyreactivity
QVQLVESGGGLVQAGGSLRLSCAASGRIFSGNAMGWYRQAPRKERELVAAISRGGSTDYADSVKGRFTISRDNAKNTVYLQMNSLKPEDTAVYYCSARVNGKRRRYDYWGQGTQVTVSS	high polyreactivity
QVQLVESGGGLVQAGGSLRISCAASGSIFTPNAMGWYRQAPGKERELVAAISSSSDRTYYADSVKGRFTISRDNAKNTVYLQMNSLKPEDTAVYYCNAYYRYGIQFDYWGQGTQVTVSS	high polyreactivity
QVQLVESAGGLVLAGGSLRLSCAASGRIFARNAMGWYRQAAGKEREFVAGITWSGSSTYYADSVKARFTISRDNAKNTVYLQMNSLKPEDTAVYYCAVDNYVGSLRIDHDYWGLGTQVTVSS	low polyreactivity
QVQLVESGGGLVQAGGSLRLSCAASGSILYRYAMGWYRQAPGKERELVAGISKTGSSTYYADSVKGRFTISRDNAKNTVYLQMNSLKPEDTAVYYCNVRHGYSGKDYRYDYWGQGTQVTVSS	low polyreactivity
QVQLVESGGGLVQAGGSLRLSCAASGIIFYRYAMGWYRQAPGKEREFVAAISWSGGSTTYADSVKGRFTISRDNAKNTVYLQMNSLKPEDTAVYYCNADRIYWSLWGPAYDYWGQGTQVTVSS	high polyreactivity
QVQLVESGGGLVQAGGSLRLSCAASGSIFWSYAMGWYRQAPGKERELVAAINWSGGRTYYADSVKGRFTISRDNAKNTVYLQMNSLKPEDTAVYYCNAPVHTAQGDEYDYWGQGTQVTVSS	high polyreactivity
QVQLVESGGGLVQAGGSLRLSCAASGRTFKTYVMGWYRQAPGKERELVAGITSGGGSTYYADSVKGRFTISRDNAKITVYLQMNSLKPEDTAVYYCAAVSKDGFWVSYYYWGQGTQVTVSS	high polyreactivity
QVQLVESGGGLVQAGGSLRLSCAASGSIFDDYAMGWYRQAPGKERELVAAISSSGTSTYYADSVKGRFTISRDNAKNTVYLQMNSLKPEDTAVYYCAKYAGVYEYDYWGQGTQVTVSS	low polyreactivity
QVQLVESAAGLVQAGGCLRLSCAASGRIFGYYAMGGYRKAPGKERELVAAITSGGGTYYADSVKGRFTNSRDNAKNTVYLQMNSLKPEDTAVYFCAADDYFHDDYCGQGTQVTVSS	high polyreactivity
QVQLVESGGGLVQAGGSLRLSCAASGFIYGPNAMGWYRQAPGKERELVAAISYSGGRTYYADSVKGRFTISRDNAKNTVYLQLISLKPEDSAVYYCAAERKIKYDYWGQGTQVTVSS	high polyreactivity
QVQLVDSGGGLVQAGGSLSLSCAASGSTFTDYDMGWYRQAPGKERELVAAITSGGSTNYADSVKGRFTISRDNAKKTVYLQMNSLNPEATAVYYCAAADADRKYDYWGQGTQVTVSS	low polyreactivity
QVHLVESGGGLVQAGGSLRLSCAASGSTFGYYTMGWYRQAPGKERELVAAISGSGDSTYYADSVKGRFTISRDNAKNTVYLQMNSLKPEDTAVYYCAKRYYKRYNYWGQGTQVTVSS	high polyreactivity
QVQLVESGGGLVQAGGSLRLSCAASGITLYRYVMGWYRQAPGKERELVAAISGRGTSTYYADSVKGRFPISRDNAKNTVYLQMNSLKPEDTAVYYCNAEYTKTGALVIPYTYYYAEDYWGQGTQVTVSS	low polyreactivity
QVQLVESGGGLVQAGGSLRLSCAASGSIFVDNAMGWYRQAPGKETQLVAAIRSRDTSTYYADSVKGRFSISLDNAKNTVYLQMNSLKPEDTAVYYCAARTSKRVSQYNYWGQGTQVTVSS	high polyreactivity
QVQLVESGGGLVQAGGSLRLSCAASGSIFGSYAMGWYRQAPGKEMELVAAISGSGGRTYYADSVKGRFTISRDNAKNTVYLKMNSLKPEDTAVYYCSAAYPRVTYKYGYYWGQGTQVTVSS	high polyreactivity
QVQLVESGGGLVQAGGRLRLSCAASGYIFKNYAMGWDRQAPGKERELVATINYSGGGTYYADSVKGRFTISRDNAKNTVYLQMNSLKQEDTAVYYCAAREKYISYSYYYWGQGTQVTVSS	high polyreactivity
QVQLVESGAGLVQAGGSLRLSCAASGSTFSRYAMGWYRQAPGKERELVAAISRRGGSTYYSDSVKGRFTISRDNSKNTVYLQKISLKPEDTAVYYCAADPQPSSDRGTYDYWGQGTQVSVSS	high polyreactivity
QVQLVESGGGLVQAGGSLRLSCAASGRIFGLNAMGWYRQAPGQERELVAAIDIIGGSTYYADSVKGRFTISRDNAKNTVYLQMNSLKPEDTAVYNCAAEGDFWRFVEYDYWGQGTQVTVSS	low polyreactivity
QVQLVESGGGLVQAGGSLRLSCAASGSIFVTNAMGWYRQAPGKERELVAAISVSGGSTYYADSEKGRITISRDNAKNTVYLQMNRLKAEDTAGYYCNARQVFTTAGREMDYWGQGTQVTVSS	low polyreactivity

Source: the nanobody polyreactivity screen of Harvey et al. (2022)
